Measurements from the DeepSol protein solubility set.

Assay: soluble on expression in E. coli; label from the status in PepcDB or PDB records

Sequence | soluble on expression in E. coli
MSLTCGSGFGGRAFSCISACGPRPGRCCITAAPYRGISCYRGLTGGFGSHSVCGGFRAGSCGRSFGYRSGGVCGPSPPCITTVSVNESLLTPLNLEIDPNAQCVKQEEKEQIKSLNSRFAAFIDKVRFLEQQNKLLETKLQFYQNRECCQSNMEPLFEGYIETLRREAECVEADSGRLASELNHVQEVLEGYKKKYEEEVSLRATAENEFVALKKDVDCAYLRKSDLEANVEALIQEIDFLRRLYEEEIRILQSHISDTSVVVKLDNSRDLNMDCIIAEIKAQYDDIVTRSRAEAESWYRSKCEEMKATVIRHGETLRRTKEEINELNRMIQRLTAEVENAKCQNSKLEAAVAQSEQQGEAALSDARCKLAELEGALQKAKQDMACLIREYQEVMNSKLGLDIEIATYRRLLEGEEQRLCEGIGAVNVCVSSSRGGVVCGDLCVSGSRPVTGSVCSAPCNGNVAVSTGLCAPCGQLNTTCGGGSCGVGSCGISSLGVGSCGSSCRKCEGHHHHHH | not soluble
PTRQVLQGSRCRLEPLTLAHASDLFAAHQLAPDARSWTWLLREPESNLAEFSAWVEQVATLADPIHFAVVDQQRGKAVGSLALMRIDIAHGVVEVGHVHFSPLLSRTAMATEAHWLLMQYVFDTLGYRRYEWKCNSLNIPSARAARRLGFQYEGRFRQALVSKGHNRDTDWFSVIDGEWPELDNAMRQWLAADNFTA | not soluble
GMSKIFNEELAVIEAAAIAYLTAFNRADIPAVIATYTDDGVLMGPGRPAAVGKDELAEVYLSVFETVGFDMAYEIKEVVQTSADWAFVRSATEGTETNKATGVVTPAAYQELFLLRKSATGSWQTARYCTSKISP | soluble
MSLIGVIGVKRNVDIAIREKLALYPKKHKKYVGELLNSFKEVVILNTCNRTEIYFNCTEEISEDEIFDKIFNVFNWNDDLKKYMFLSKEKRAVTHLMEVICGFHSRILGEDQILGQIKGAYKTAISDNSISSELQKMFEIAIACGKKFKTECKMFEVPVSSVSISINSALLKGCRKFMVLGYGEIGKLAIKHLLSHKVECIYLIVRDKSKASDLEGEIVEVLDFNEKNQVINEIDCIVSCTAAPHTVVRNEDIKTEGETIHIYDLAVPRDVDKELSEKERVILKDIDEISKIDDKNKKIRKERMEEYKHIVEESIDEFLNWLKIREVSSKIRNIKIRENEICSERIKTFSNKGNGENAKLAERMIKSTADAYVNRAIELLKSEALKGSDSYCAEIIEKIFLTEGHHHHHH | soluble
PFSWMRYIVISRKDLEEDGREILIHEMAHIQNRHSIDLLVADICIFFQWFNPGIWLLKQELQNIHEYEADETVINEGIDAKDYQLLLI | not soluble
GAVDLNKENRDPKYVESIVNRSQKIVDKLGLTDAKVAEDVCNVIANRYFELNDIYEIRDAKVKAVKESGLTGDAKNEALKAAENEKDAALYRSHFAFPASLSLFLNEEQIEAVKDGMTYGVVKVTYEATLDMIPSLKEEEKVQIYAWLVEAREFAMDAENSNKKHAAFGKYKGRINNYLAKRGYNLTKEREEWAKRVKARGGTL | soluble
MGSDKIHHHHHHMTSKNQSPLASDHPLAMPDTEISAREVFGIDIDMLVPAFSVGSEHVPDVDPAYRFDPDTTKAILAGFAFNRRVMVQGYHGTGKSTHIEQVAARLNWPCIRVNLDSHVSRIDLIGKDAIVVKDGKQITEFREGMLPWALQHPCALVFDEYDAGRPDVMFVIQRVLEVEGRLTLLDQNRVIRPHAAFRLFATANTVGLGDTTGLYHGTQQINQGQMDRWNIVATLNYLAHDDECSIVVAKLKDYDTPEGRDLVSKMVMLADLTRQGFMNGDISTVMSPRTVITWAENTRIFGDHSYGFRVTFLNKCDEVERPILAEYYQRCFGTDLPDGPARMLA | not soluble
MRATVSGKTTTILPLLSKLIVIVIKSTSIHCSTLTSSGLFDSTAPRVFKNLVNYGGDMWFYMKPYPSNGKSGSQQMENVYQGLKSAQIKFSHITQHGISVQFFTSQSNWHSITNNNRSFSSYKLWWAHTNGAGNGGATSPNFEGFVSFGGWTSSSLVGKEYARQVQECGVTVNKYVYVK | not soluble
